From paper PMC8168904, “The Trypanosoma brucei subpellicular microtubule array is organized into functionally discrete subdomains defined by microtubule associated proteins” (PLoS Pathogens, 2021)

T1: mNeonGreen-PAVE1 (Posterior And Ventral Edge protein 1), tagged at both endogenous alleles (T. brucei (endogenous locus, 427 strain), UniProt Q581X9 1-421)
T1 construct: PAVE1, Trypanosoma brucei, TriTrypDB Tb927.8.2030; expressed from the endogenous locus with an N-terminal tag; also called mNG-PAVE1; dET-mNeonGreen-PAVE1; source: endogenously tagged at both alleles, T. brucei 427 procyclic cells, in sonicated and clarified lysate; not shown: mNeonGreen, N-terminal, kept
T1 sequence (looked up): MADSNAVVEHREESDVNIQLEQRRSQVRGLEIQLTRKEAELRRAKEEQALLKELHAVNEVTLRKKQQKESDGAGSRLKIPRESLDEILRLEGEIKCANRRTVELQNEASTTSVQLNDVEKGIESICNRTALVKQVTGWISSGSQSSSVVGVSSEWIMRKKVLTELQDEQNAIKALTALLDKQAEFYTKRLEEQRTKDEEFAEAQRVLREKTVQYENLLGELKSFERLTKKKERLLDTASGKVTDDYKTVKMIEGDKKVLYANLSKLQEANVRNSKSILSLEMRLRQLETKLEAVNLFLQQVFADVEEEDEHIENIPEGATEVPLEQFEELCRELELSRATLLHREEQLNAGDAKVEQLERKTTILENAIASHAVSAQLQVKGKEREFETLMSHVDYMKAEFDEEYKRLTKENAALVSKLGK

B1: PAVE2 (Tb927.9.11540), endogenous (natural protein, T. brucei (endogenous in 427 cells), UniProt Q38DN4 1-438, looked up)
chain: MADVSADSDAQVELERLNDVIDKYTCQVEHIDNLLQELEEENNSDSVSRQIAEYQSALESHPENIPAEDALEVITRLENTLKIVQRRNHLLEKENGTQNRLLEERSNVLLNATKTFDHIVDVTGWHDKFLFDAEDLRSKVADIREMSNIEAVVQKELRVAQGIIKKKEAALRQLEELVEQGKEQEAVLNNVYNDIRVKERDCSEVEMQLVRLRKSVAKTDEALAVFDLHNQNASLAYMESDRDYLRDSVAEMKSTTRRQDNVIKAQLTRQQQLQTRLDVIMKSLREMKLDKKYERNIPKSALVPSASREEPEDVSKILPESECIPVPTYRLLHKNNEMLRVIVMRKNMLVLEKNAVIEALEAGLAKYGSALITTYKEQQDLRQNKDMELIELMDDLQQQHSNYLEKLEELRLQNAALKKKMYRSTRQHAPLKGTRPMR
notes: PAVE2, Trypanosoma brucei, TriTrypDB Tb927.9.11540, predicted MW 51 kDa; also called uncharacterized protein Tb927.9.11540; source: endogenous, T. brucei 427 lysate (mNeonGreen-PAVE1 cells)

Tests used:
[1] = target: Taxol-stabilized bovine microtubules labeled with Cy5 (bovine) (UniProt Q6B856); experiment: not stated; (the row names no known assay)
[2] = target: T1, mNeonGreen-PAVE1 (Posterior And Ventral …); experiment: affinity purification with mass spectrometry; mNeonGreen-PAVE1 captured from sonicated, clarified T. brucei lysate on magnetic mNeonGreen-Trap nanobody beads, 1 hr 4°C, 6 washes; on-bead tryptic digest and LC-MS/MS, and silver-stained SDS-PAGE of the eluate; WT 427 cells as control; details: partners not purified

Molecule | time that pre-seeded patches remained after wash-out [1] [min] | stoichiometry N [2]
PAVE complex (mNeonGreen-PAVE1 with Strep-PAVE2) | > 20 | 
B1 |  | ~1
